Laboratory results reported in patent CN112745389A (REYOUNG SUZHOU BIOPHARMACEUTICAL CO LTD, dated 2021).

T1: 人IL-5蛋白 (human interleukin-5) (human, UniProt P05113 20-134)
T1 sequence (looked up): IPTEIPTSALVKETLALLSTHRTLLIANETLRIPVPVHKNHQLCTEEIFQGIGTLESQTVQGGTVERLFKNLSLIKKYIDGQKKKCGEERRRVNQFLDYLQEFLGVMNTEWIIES

B1: RB0003-30E6D5 (antibody, V domains shown)
VH: EVQLQQSGAELVKPGASVKLSCTTSGFNIKDYFIHWVKQRTEQGLEWIGRIDPEDGETKYAPKFQGKATITADTSSNTAYLQLSSLTSEDTAVYYCVSYSTYPDYWGQGTTLTVSS
VL: HIVLTQSPALMSTSPGEKVTMTCSASSSVSYMYWYQQKPRSSPKPWIYLTSTLASGVPARFSGSGSGTSYSLTISSMEAEDAATYYCQQWSSTPFTFGSGTKLEIKR
B2: 人源化32D12C12抗体 (humanized 32D12C12) (antibody, V domains shown)
VH: EVQLVESGGGLVQPGGSLKLSCAASGFTFNTYAMNWVRQASGKGLEWVGRIRSKTANFATFYADSVTDRFTISRDDSKNTLYLQMNSLKTEDTAVYYCVRHGAYYTYDGAMDYWGQGTTVTVSS
VL: DIQMTQSPSSLSASVGDRVTITCKASQDVRTAIAWYQQKPGKAPKLLIYWASTRHTGVPSRFSGSGSGTDYTLTISSLQPEDFATYYCQQHYSTPYTFGQGTKLEIK

Experiments:
[1] = biological target: T1, 人IL-5蛋白 (human interleukin-5); test: cell-based or functional assay
[2] = biological target: T1, 人IL-5蛋白 (human interleukin-5); test: affinity measurement (sensorgram, 1:1 binding model; Figure 3)

| Binder | IC50(ng/mL), 阻断增殖 (TF-1 proliferation, CellTiter-Glo) [1] [ng/mL] | binding result [2] |
| --- | --- | --- |
| B1 | 16.3 |  |
| B2 |  | binds |
